{"source": "paper PMC9652321", "about": "“Structural basis of human SNAPc recognizing proximal sequence element of snRNA promoter”", "molecules": {"B1": {"name": "25 bp hU6-1 PSE (dsDNA)", "DNA 1": "TGCTTACCGTAACTTGAAAGTATTT", "DNA 2": "AAATACTTTCAAGTTACGGTAAGCA"}, "B2": {"name": "PSE 8Sub (dsDNA)", "DNA 1": "TGCTTACATGAACTTCCCATCATTT", "DNA 2": "AAATGATGGGAAGTTCATGTAAGCA"}, "B3": {"name": "PSE 6Sub (dsDNA)", "DNA 1": "TGCTTACCTGAACTTGCCATCATTT", "DNA 2": "AAATGATGGCAAGTTCAGGTAAGCA"}}, "key": {"[1]": {"molecular_target": "T1, mSNAPc#2 5Mu Y389A;R445A;R151A;K194A;W350A (Homo sapiens) (UniProt Q5SXM2+Q92966+Q16533+O75971)", "T1 sequence 1": "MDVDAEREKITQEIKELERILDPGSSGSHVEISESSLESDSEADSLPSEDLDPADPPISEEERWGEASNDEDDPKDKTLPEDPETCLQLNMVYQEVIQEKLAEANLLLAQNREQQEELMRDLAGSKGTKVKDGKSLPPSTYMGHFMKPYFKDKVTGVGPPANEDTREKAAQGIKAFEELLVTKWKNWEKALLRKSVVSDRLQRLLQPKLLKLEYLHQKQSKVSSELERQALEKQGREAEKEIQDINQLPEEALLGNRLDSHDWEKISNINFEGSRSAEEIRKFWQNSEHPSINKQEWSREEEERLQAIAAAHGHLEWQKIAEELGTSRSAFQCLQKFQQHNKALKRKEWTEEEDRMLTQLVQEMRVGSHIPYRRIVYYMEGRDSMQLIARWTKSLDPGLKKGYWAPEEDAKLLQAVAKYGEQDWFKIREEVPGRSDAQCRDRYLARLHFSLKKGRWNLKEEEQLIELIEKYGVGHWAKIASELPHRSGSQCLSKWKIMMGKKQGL", "T1 sequence 2": "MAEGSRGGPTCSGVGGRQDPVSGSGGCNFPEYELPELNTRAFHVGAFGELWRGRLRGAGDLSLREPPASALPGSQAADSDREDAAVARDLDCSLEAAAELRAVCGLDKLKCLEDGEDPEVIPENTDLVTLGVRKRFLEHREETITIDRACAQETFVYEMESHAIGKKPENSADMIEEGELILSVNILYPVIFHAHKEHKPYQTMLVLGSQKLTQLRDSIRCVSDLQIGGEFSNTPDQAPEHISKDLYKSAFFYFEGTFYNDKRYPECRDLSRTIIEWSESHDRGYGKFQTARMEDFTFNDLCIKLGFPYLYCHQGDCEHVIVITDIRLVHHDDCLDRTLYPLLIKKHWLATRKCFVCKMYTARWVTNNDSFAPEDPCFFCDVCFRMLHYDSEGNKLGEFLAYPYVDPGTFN", "T1 sequence 3": "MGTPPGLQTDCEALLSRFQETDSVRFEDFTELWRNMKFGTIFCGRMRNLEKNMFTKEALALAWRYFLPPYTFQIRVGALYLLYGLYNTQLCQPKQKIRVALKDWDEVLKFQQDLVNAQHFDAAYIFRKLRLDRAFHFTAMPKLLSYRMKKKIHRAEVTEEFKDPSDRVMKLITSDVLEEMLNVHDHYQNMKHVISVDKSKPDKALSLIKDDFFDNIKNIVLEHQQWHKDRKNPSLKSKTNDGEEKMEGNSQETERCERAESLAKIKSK", "T1 sequence 4": "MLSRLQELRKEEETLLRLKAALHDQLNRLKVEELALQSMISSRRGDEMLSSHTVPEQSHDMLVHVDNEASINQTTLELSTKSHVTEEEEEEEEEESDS", "assay": "SPR", "settings": "EMSA: 100 mM KCl, 25 mM HEPES-K pH 7.6, 12.5 mM MgCl2, 10 uM ZnCl2, 0.1 mM EDTA, 10% glycerol, 3 mM DTT, 0.5 mM PMSF, 50 nM DNA, RT 30 min; SPR: 100 mM KCl, 12."}, "[2]": {"molecular_target": "T2, mSNAPc#2 4Mu Y389A;R445A;R151A;W350A (Homo sapiens) (UniProt Q5SXM2+Q92966+Q16533+O75971)", "T2 sequence 1": "T1 sequence 1", "T2 sequence 2": "T1 sequence 2 with A194K", "T2 sequence 3": "T1 sequence 3", "T2 sequence 4": "T1 sequence 4", "assay": "SPR", "settings": "EMSA: 100 mM KCl, 25 mM HEPES-K pH 7.6, 12.5 mM MgCl2, 10 uM ZnCl2, 0.1 mM EDTA, 10% glycerol, 3 mM DTT, 0.5 mM PMSF, 50 nM DNA, RT 30 min; SPR: 100 mM KCl, 12."}, "mSNAPc#11 (rod module)": {"molecular_target": "T3, mSNAPc#11 (rod module) (Homo sapiens, UniProt Q5SXM2;Q16533;O75971 1-143;148-268;1-98)", "T3 sequence 1": "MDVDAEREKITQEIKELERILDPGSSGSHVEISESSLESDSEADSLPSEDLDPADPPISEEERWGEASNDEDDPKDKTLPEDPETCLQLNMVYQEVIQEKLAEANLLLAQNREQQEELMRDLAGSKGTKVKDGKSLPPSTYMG", "T3 sequence 2": "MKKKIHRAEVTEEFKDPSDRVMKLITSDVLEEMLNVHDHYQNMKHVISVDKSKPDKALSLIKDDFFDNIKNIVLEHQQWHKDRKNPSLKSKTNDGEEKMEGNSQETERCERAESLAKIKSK", "T3 sequence 3": "T1 sequence 4", "assay": "EMSA; 200 and 800 nM protein; EMSA: 100 mM KCl, 25 mM HEPES-K pH 7.6, 12.5 mM MgCl2, 10 uM ZnCl2, 0.1 mM EDTA, 10% glycerol, 3 mM DTT, 0.5 mM PMSF, 50 nM DNA, RT 30 min; SPR: 100 mM KCl, 12.5 mM MgCl2, 10 uM ZnCl2, 0.1 mM EDTA, 0.05% P20, 25 C", "settings": "protein: recombinant; tags: Strep SNAP19; MBP SNAP190; MBP N-term SNAP43; copies: 1;1;1; label: 5'-FAM on positive strand (EMSA)"}, "mSNAPc#2 WT": {"molecular_target": "T4, mSNAPc#2 WT (Homo sapiens, UniProt Q5SXM2;Q92966;Q16533;O75971 1-505;1-411;1-268;1-98)", "T4 sequence 1": "T1 sequence 1 with A389Y, A445R", "T4 sequence 2": "T1 sequence 2 with A151R, A194K, A350W", "T4 sequence 3": "T1 sequence 3", "T4 sequence 4": "T1 sequence 4", "assay": "EMSA; 200 and 1000 nM protein; EMSA: 100 mM KCl, 25 mM HEPES-K pH 7.6, 12.5 mM MgCl2, 10 uM ZnCl2, 0.1 mM EDTA, 10% glycerol, 3 mM DTT, 0.5 mM PMSF, 50 nM DNA, RT 30 min; SPR: 100 mM KCl, 12.5 mM MgCl2, 10 uM ZnCl2, 0.1 mM EDTA, 0.05% P20, 25 C", "settings": "protein: recombinant; tags: FLAG N-term SNAP190; 6xHis N-term SNAP43; copies: 1;1;1;1; label: 5'-FAM"}}, "note": "Numbering of substitutions follows the chain as printed.", "data": [{"molecule": "TGCTTACCGTAACTTGAAAGTATTT (double strand) [25 bp hU6-1 PSE (SPR)]", "values": [{"measurement": "Kd", "setting": "[1]", "result": 49, "unit": "µM"}, {"measurement": "Kd", "setting": "[2]", "result": 8.91, "unit": "µM"}]}, {"molecule": "B1", "values": [{"measurement": "binding result", "setting": "mSNAPc#11 (rod module)", "result": "no binding"}]}, {"molecule": "B2", "values": [{"measurement": "binding result", "setting": "mSNAPc#2 WT", "result": "no binding"}]}, {"molecule": "B3", "values": [{"measurement": "binding result", "setting": "mSNAPc#2 WT", "result": "no binding"}]}]}
